Experimental data as given in the supplement of paper PMC10065799, “High-throughput profiling of sequence recognition by tyrosine kinases and SH2 domains using bacterial peptide display” (eLife, 2023).

Experiments:
AncSZ = experiment: phosphorylation enrichment, bacterial display (enrichment ratio); higher = better substrate or ligand; peptides without Tyr show the background
EPHB1 = EPHB1 (UniProt P54762); experiment: as above
EPHB2 = EPHB2 (UniProt P29323); experiment: as above
FGFR1 = FGFR1 (UniProt P11362); experiment: as above
Chain of FGFR1 (P11362 whole entry, looked up): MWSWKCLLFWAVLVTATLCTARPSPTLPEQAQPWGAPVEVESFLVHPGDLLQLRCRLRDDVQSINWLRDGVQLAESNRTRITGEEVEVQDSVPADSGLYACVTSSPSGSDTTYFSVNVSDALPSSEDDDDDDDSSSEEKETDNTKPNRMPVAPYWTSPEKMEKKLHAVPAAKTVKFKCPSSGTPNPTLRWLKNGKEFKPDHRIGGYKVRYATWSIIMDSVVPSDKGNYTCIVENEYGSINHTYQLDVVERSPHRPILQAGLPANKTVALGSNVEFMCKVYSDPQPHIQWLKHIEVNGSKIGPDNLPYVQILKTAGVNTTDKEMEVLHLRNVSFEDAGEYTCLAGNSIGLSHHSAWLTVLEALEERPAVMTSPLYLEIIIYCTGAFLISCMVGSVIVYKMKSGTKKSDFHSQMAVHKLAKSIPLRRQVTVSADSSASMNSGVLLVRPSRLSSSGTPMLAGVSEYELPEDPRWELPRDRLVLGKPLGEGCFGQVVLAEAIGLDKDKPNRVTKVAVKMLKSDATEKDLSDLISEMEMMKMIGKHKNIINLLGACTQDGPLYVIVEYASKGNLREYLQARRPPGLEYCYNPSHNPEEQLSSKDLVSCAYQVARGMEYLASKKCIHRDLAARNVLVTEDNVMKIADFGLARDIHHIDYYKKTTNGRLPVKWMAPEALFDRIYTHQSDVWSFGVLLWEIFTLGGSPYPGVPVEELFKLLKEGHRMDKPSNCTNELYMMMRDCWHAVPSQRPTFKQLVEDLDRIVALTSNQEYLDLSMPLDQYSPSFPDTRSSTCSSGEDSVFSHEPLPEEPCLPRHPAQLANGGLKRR

FGFR3 = FGFR3 (UniProt P22607); experiment: as above
Chain of FGFR3 (P22607 whole entry, looked up): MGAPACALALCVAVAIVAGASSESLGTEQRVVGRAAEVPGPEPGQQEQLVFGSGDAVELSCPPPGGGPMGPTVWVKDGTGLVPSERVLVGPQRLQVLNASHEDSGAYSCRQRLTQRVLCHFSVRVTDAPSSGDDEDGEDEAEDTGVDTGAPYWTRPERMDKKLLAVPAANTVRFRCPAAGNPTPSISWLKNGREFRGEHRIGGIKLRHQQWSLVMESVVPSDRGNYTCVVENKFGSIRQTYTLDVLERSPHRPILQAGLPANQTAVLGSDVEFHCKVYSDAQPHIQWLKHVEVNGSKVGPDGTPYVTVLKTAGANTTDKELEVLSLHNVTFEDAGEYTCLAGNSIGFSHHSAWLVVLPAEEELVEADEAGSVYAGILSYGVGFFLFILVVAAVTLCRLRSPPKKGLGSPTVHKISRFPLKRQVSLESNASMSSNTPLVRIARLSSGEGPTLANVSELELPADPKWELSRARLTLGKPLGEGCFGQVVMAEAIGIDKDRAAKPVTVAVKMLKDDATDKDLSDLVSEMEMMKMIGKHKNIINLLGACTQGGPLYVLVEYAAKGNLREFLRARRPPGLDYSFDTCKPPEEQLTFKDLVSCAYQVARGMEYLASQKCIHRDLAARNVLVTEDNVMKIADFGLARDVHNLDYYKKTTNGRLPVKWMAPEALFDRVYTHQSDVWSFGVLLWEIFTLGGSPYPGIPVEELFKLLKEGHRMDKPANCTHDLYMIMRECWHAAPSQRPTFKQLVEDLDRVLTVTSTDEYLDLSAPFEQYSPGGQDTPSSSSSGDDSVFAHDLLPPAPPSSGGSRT

Fer (mouse) = experiment: as above
Fes = Fes (UniProt P07332); experiment: as above
Fyn = Fyn (UniProt P06241); experiment: as above
Chain of Fyn (P06241 whole entry, looked up): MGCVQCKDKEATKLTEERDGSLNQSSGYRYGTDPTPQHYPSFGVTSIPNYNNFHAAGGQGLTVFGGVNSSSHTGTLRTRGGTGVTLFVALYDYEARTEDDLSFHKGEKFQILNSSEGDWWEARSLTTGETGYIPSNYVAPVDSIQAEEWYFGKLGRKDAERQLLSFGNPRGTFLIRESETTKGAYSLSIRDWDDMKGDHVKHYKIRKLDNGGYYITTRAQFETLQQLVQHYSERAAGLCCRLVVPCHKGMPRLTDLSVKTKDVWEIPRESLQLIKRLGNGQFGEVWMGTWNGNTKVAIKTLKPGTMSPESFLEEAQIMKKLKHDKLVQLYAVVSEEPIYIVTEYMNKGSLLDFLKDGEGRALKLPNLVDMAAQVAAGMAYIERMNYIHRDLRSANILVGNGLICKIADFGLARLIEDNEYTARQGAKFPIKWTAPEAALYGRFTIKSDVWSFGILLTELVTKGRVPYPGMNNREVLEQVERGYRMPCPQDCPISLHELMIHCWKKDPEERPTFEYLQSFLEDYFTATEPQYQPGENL

Hck = Hck (UniProt P08631); experiment: as above
Chain of Hck (P08631 whole entry, looked up): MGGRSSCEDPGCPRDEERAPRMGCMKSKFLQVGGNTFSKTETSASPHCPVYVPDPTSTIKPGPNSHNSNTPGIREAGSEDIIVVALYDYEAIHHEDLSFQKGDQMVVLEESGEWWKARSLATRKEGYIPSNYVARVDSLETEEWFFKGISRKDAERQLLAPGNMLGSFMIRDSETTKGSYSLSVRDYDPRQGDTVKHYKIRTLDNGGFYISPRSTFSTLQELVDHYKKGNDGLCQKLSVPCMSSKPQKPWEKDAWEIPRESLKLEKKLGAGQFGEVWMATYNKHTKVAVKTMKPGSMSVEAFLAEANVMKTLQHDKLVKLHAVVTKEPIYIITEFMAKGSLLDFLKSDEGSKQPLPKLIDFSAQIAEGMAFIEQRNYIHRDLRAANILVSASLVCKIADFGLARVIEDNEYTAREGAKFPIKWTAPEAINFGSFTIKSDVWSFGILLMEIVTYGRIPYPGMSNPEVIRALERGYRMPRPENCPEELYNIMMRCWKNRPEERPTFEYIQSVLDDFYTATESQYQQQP

Jak2 = Jak2 (UniProt O60674); experiment: as above
Chain of Jak2 (O60674 whole entry, looked up): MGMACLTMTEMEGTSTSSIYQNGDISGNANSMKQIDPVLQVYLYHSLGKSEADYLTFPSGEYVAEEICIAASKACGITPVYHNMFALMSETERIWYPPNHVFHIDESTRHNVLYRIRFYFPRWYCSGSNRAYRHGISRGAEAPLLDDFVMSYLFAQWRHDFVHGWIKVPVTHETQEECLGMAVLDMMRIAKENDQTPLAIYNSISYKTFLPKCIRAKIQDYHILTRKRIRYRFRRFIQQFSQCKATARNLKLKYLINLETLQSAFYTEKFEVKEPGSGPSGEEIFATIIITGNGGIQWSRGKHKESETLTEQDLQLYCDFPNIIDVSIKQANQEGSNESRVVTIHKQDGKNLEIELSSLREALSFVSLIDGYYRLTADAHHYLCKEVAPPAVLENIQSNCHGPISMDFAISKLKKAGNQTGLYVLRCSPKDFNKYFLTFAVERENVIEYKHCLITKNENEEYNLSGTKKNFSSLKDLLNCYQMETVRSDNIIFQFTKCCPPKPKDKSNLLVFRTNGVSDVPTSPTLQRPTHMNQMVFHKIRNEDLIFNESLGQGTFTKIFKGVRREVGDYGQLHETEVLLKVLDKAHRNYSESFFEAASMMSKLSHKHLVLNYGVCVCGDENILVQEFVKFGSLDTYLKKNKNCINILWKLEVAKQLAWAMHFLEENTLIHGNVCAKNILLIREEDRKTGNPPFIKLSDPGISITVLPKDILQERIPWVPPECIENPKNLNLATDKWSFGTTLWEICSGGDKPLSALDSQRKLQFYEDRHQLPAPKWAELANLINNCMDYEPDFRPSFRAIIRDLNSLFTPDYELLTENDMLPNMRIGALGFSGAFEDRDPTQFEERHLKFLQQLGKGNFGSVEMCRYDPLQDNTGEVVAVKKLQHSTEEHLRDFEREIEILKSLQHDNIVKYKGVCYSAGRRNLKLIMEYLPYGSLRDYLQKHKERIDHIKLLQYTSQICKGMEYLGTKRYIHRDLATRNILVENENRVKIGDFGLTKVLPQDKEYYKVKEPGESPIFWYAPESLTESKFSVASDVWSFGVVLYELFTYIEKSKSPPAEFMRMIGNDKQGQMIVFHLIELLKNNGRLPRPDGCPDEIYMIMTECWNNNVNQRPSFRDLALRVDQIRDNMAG

MERTK = MERTK (UniProt Q12866); experiment: as above
c-Abl (mouse) = experiment: as above
c-Src = experiment: as above
Grb2 SH2 = Grb2 SH2 (UniProt P62993); experiment: SH2 binding enrichment of the phosphorylated peptide, bacterial display (enrichment ratio); higher = better substrate or ligand; peptides without Tyr show the background
Chain of Grb2 SH2 (P62993 whole entry, looked up): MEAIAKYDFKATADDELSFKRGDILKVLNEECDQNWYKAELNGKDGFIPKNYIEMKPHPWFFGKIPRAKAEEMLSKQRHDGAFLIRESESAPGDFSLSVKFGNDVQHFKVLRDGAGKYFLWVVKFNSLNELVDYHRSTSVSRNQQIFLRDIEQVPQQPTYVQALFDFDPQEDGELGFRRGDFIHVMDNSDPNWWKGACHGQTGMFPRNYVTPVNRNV

SHP2-C SH2 = experiment: as above
c-Src SH2 = experiment: as above
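Throughout, for SH2 binding enrichment of the phosphorylated peptide, bacterial display: peptide library displayed on the E. coli surface as eCPX fusions, selected cells deep-sequenced, score is each peptide's frequency after selection divided by its frequency in the input.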
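Throughout, for phosphorylation enrichment, bacterial display: 11-residue human phosphosite peptides and single-mutation variants displayed on the E. coli surface, counted by deep sequencing, each peptide's frequency after selection divided by its frequency in the unselected input library; frequency after pTyr selection over input frequency; kinase dosed for 20-30% of maximal phosphorylation in three min.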

Chain of EPHB1 (P54762 whole entry, looked up): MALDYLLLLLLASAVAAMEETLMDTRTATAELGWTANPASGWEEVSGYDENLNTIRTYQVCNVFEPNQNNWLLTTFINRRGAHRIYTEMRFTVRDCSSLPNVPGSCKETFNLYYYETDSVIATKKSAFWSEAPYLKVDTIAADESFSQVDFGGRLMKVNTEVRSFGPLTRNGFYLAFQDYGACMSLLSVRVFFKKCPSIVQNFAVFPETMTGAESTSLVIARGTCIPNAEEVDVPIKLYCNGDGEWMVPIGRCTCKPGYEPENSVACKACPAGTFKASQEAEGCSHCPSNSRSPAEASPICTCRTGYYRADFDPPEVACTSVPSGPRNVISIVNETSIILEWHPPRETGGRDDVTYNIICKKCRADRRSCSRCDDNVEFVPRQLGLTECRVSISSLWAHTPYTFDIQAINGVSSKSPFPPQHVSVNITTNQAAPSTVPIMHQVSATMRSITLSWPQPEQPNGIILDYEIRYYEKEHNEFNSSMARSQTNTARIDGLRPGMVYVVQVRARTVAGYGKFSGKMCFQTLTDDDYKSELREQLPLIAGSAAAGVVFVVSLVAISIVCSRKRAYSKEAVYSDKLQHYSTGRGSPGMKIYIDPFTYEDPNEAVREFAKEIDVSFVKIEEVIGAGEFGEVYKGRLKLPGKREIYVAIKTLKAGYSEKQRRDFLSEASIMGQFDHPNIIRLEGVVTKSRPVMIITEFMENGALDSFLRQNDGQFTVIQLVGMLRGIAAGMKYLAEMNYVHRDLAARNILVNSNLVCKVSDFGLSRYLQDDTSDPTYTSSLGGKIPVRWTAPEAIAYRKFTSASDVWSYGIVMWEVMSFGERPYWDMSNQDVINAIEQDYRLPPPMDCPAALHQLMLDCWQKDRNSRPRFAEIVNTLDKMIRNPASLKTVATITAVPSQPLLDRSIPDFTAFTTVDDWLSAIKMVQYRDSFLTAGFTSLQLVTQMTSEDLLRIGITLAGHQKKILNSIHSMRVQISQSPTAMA

Sequence | phosphorylation enrichment (AncSZ) | phosphorylation enrichment (EPHB1) | phosphorylation enrichment (EPHB2) | phosphorylation enrichment (FGFR1) | phosphorylation enrichment (FGFR3) | phosphorylation enrichment (Fer (mouse)) | phosphorylation enrichment (Fes) | phosphorylation enrichment (Fyn) | phosphorylation enrichment (Hck) | phosphorylation enrichment (Jak2) | phosphorylation enrichment (MERTK) | phosphorylation enrichment (c-Abl (mouse)) | phosphorylation enrichment (c-Src) | SH2 binding enrichment (Grb2 SH2) | SH2 binding enrichment (SHP2-C SH2) | SH2 binding enrichment (c-Src SH2)
SVTCTCSPALN [TP53_Y126_Y126C] | 1.16 | 0.704 | 0.614 | 0.585 | 0.889 | 0.533 | 1.48 | 0.479 | 0.526 | 1.15 | 0.395 | 0.907 | 0.415 | 0.856 | 0.508 | 0.472
SVVVSYEPPEV [TP53_Y220_P219S] | 1.23 | 0.519 | 0.579 | 0.475 | 0.594 | 0.515 | 0.918 | 0.587 | 0.632 | 0.808 | 0.434 | 0.749 | 0.432 | 0.82 | 0.914 | 0.707
SYCYRYRCAAW [SUMF1_Y344_R349W] | 0.707 | 0.445 | 0.453 | 0.532 | 0.508 | 0.404 | 0.785 | 0.395 | 0.386 | 0.508 | 0.497 | 0.594 | 0.471 | 1.6 | 1.88 | 1.67
TAGEPYHDIRF [BAP1_Y223] | 0.821 | 0.555 | 0.446 | 1.54 | 1.29 | 0.523 | 0.744 | 0.498 | 0.489 | 0.64 | 0.426 | 0.429 | 0.619 | 0.899 | 0.776 | 1.94
TCFDKYTGNTF [FN1_Y101_YF] | 1.35 | 0.813 | 0.772 | 0.508 | 0.92 | 0.647 | 1.18 | 0.563 | 0.567 | 1.16 | 0.501 | 0.93 | 0.544 | 0.625 | 0.98 | 0.412
TDHLQYFDSNK [ARAP1_Y359_R358Q] | 0.809 | 0.721 | 0.651 | 0.928 | 0.84 | 0.654 | 1.31 | 0.79 | 0.697 | 0.914 | 0.607 | 0.695 | 0.656 | 1.2 | 0.94 | 0.536
TDKLFYIFTSG [SLC27A4_Y243_YF] | 1.6 | 0.732 | 0.701 | 0.686 | 0.886 | 0.472 | 1.44 | 0.506 | 0.524 | 1.41 | 0.538 | 0.766 | 0.469 | 0.851 | 0.825 | 0.447
TEDELYQLSLQ [RASGRP2_Y378] | 1.9 | 0.717 | 0.677 | 0.476 | 0.759 | 2.94 | 1.27 | 0.93 | 0.896 | 1.04 | 0.542 | 0.928 | 1.33 | 0.661 | 0.563 | 0.412
TFEFKYPEGSS [TGM4_Y440_YF] | 1.02 | 0.437 | 0.583 | 0.518 | 0.827 | 0.512 | 1.18 | 0.55 | 0.617 | 0.765 | 0.497 | 0.734 | 0.499 | 0.804 | 0.463 | 0.506
TFMKQYPKVFL [CNBD1_Y70] | 0.82 | 0.54 | 0.541 | 0.55 | 0.56 | 0.436 | 1.09 | 0.525 | 0.473 | 0.591 | 0.364 | 0.521 | 0.486 | 0.836 | 0.811 | 0.559
TGQERYRAITS [RAB11B_Y73_A68T] | 0.516 | 0.322 | 0.291 | 0.423 | 0.392 | 0.346 | 0.588 | 0.451 | 0.519 | 0.369 | 0.337 | 0.368 | 0.344 | 0.836 | 0.695 | 0.485
THQNSYQPGRK [CEFIP_Y210] | 0.561 | 0.233 | 0.366 | 0.479 | 0.34 | 0.303 | 0.436 | 0.36 | 0.375 | 0.415 | 0.34 | 0.422 | 0.299 | 0.903 | 0.98 | 0.673
TILEHYRRTHC [MYBPC3_Y1119_V1115I] | 0.809 | 0.465 | 0.575 | 0.511 | 0.619 | 0.439 | 1.08 | 0.378 | 0.524 | 0.781 | 0.59 | 0.609 | 0.505 | 0.874 | 0.939 | 0.663
TINPIYEHVGY [CHN1_Y143] | 1.15 | 25.6 | 26.2 | 1.01 | 1.06 | 22.4 | 8.63 | 14.7 | 13.6 | 0.578 | 12.2 | 5.77 | 8.55 | 0.762 | 0.582 | 0.574
TIQIMYGCDVG [HLA-A_Y123] | 1.37 | 0.647 | 0.664 | 0.476 | 0.817 | 0.597 | 1.43 | 0.438 | 0.581 | 1.64 | 0.439 | 1.18 | 0.633 | 0.857 | 0.75 | 0.654
TISPYYCQSLF [CRYAA_Y48_R49C] | 1.1 | 0.934 | 0.543 | 5.32 | 4.43 | 0.939 | 1.13 | 1.12 | 0.79 | 1.26 | 5.18 | 1.13 | 1.76 | 0.867 | 0.743 | 2.21
TKAEKYVNKAK [PLCG1_Y991] | 0.503 | 0.264 | 0.293 | 0.387 | 0.523 | 0.403 | 0.671 | 0.295 | 0.343 | 0.557 | 0.365 | 0.92 | 0.443 | 0.89 | 1.01 | 0.709

Sequence | phosphorylation enrichment (AncSZ) | phosphorylation enrichment (EPHB1) | phosphorylation enrichment (EPHB2) | phosphorylation enrichment (FGFR1) | phosphorylation enrichment (FGFR3) | phosphorylation enrichment (Fer (mouse)) | phosphorylation enrichment (Fes) | phosphorylation enrichment (Fyn) | phosphorylation enrichment (Hck) | phosphorylation enrichment (Jak2) | phosphorylation enrichment (MERTK) | phosphorylation enrichment (c-Abl (mouse)) | phosphorylation enrichment (c-Src) | SH2 binding enrichment (Grb2 SH2) | SH2 binding enrichment (SHP2-C SH2) | SH2 binding enrichment (c-Src SH2)
TKLKDYYIFNK [CCDC42_Y149_A144T] | 1.02 | 0.811 | 0.691 | 4.92 | 3.16 | 0.538 | 0.91 | 0.579 | 0.752 | 1.49 | 1.28 | 0.736 | 1.37 | 1.05 | 1.1 | 0.88
TLLERYGMIEI [ACSF3_Y355_T358I] | 0.798 | 0.606 | 0.535 | 0.515 | 0.644 | 0.632 | 1.06 | 0.525 | 0.465 | 1.02 | 0.489 | 0.802 | 0.472 | 0.748 | 0.884 | 0.983
TLSGTYQYIIA [FOXL2_Y81_I80T] | 1.05 | 5.25 | 2.21 | 5.91 | 3.44 | 5.51 | 1.08 | 1.06 | 3.11 | 1.05 | 7.42 | 1.05 | 1.17 | 0.828 | 1.43 | 1.93
TNFPLYLRSLE [MTM1_Y71_R69P_YF] | 0.716 | 0.685 | 0.51 | 0.449 | 0.544 | 0.401 | 0.761 | 0.413 | 0.505 | 1.13 | 0.378 | 0.493 | 0.492 | 0.883 | 0.976 | 0.675
TPGPNYRPGYN [USH2A_Y463] | 0.562 | 0.39 | 0.542 | 0.232 | 0.676 | 0.294 | 0.549 | 0.432 | 0.346 | 0.597 | 0.487 | 0.404 | 0.309 | 0.671 | 0.488 | 0.442
TQFWLYFAGNL [SLC25A5_Y112] | 1.23 | 0.681 | 0.665 | 0.534 | 1 | 0.498 | 1.57 | 0.376 | 0.479 | 1.64 | 0.576 | 1.22 | 0.652 | 0.742 | 0.557 | 0.509
TRHDEYLEVTK [MAP1A_Y2217] | 0.882 | 0.464 | 0.547 | 0.589 | 1.11 | 0.421 | 1.03 | 0.565 | 0.399 | 0.726 | 0.343 | 0.612 | 0.401 | 1.15 | 0.598 | 0.506
TRSYDYTEGGD [FGF7_Y58_M59T] | 0.898 | 0.439 | 0.465 | 0.61 | 0.59 | 0.414 | 0.976 | 0.56 | 0.446 | 0.876 | 0.463 | 0.642 | 0.375 | 0.706 | 0.565 | 1.65
TTKGSYSLYVR [HCK_Y180_S183Y] | 1.02 | 0.667 | 0.581 | 0.464 | 0.671 | 0.474 | 1.16 | 0.462 | 0.458 | 1.02 | 0.43 | 0.666 | 0.373 | 0.998 | 1.11 | 0.647
TTPAVYARVTK [CTRB2_Y246_A250T] | 0.443 | 0.665 | 0.768 | 0.262 | 0.496 | 0.378 | 0.442 | 2.46 | 2.42 | 0.618 | 0.725 | 1.32 | 3.55 | 0.696 | 0.383 | 2.11
TVEDHYFEGGI [TKT_Y563_YF] | 1.1 | 0.726 | 0.625 | 0.762 | 1.03 | 0.559 | 1.05 | 0.519 | 0.497 | 0.776 | 0.444 | 0.798 | 0.472 | 0.814 | 0.805 | 0.391
TVFSDYLHPQF [CCPG1_Y569_YF] | 4.45 | 1.02 | 0.573 | 1.03 | 0.938 | 0.43 | 1.22 | 0.69 | 0.643 | 1.83 | 0.805 | 1.53 | 1.07 | 0.667 | 0.757 | 0.591
TVFSDYLHPQY [CCPG1_Y569] | 2.34 | 0.727 | 0.505 | 0.699 | 0.723 | 0.398 | 0.944 | 0.43 | 0.457 | 1.36 | 0.417 | 0.785 | 0.498 | 0.88 | 0.76 | 0.541
TVHCDYLNIPH [TAF1L_Y1385] | 0.959 | 3.02 | 0.706 | 6.63 | 3.97 | 0.46 | 1.02 | 0.464 | 0.55 | 0.941 | 0.442 | 0.521 | 0.718 | 2.18 | 0.676 | 0.718
TVLWLYTGTRP [UGT1A1_Y337_R336L] | 1.17 | 0.548 | 0.487 | 0.369 | 0.742 | 0.527 | 1.27 | 0.68 | 0.466 | 1.06 | 0.318 | 0.532 | 0.255 | 1.28 | 1.3 | 1.06
TVLWWYTGTRP [UGT1A1_Y337_R336W] | 1.3 | 0.458 | 0.513 | 0.389 | 0.68 | 0.398 | 1.32 | 0.4 | 0.41 | 1.23 | 0.277 | 0.599 | 0.311 | 1.02 | 2.08 | 0.752
